Assay results: patent US20150147342A1 (published 2015)

B1: H2M750N (antibody, V domains shown)
VH: QVKLVESGGGVVQPGRSLRVSCAASGFTFSSYGMHWVRQAPGKGLEWLAIIWYDGDNKYYSDSVKGRFTISRDNSKNTLYLQMNSLRAEDTAEYYCVRDASIASRFLDYWGQGTLVTVSS
VL: DIQMTQSPSSLSASIGDRVTITCRATQDINNYLAWFQQKPGKAPKSLIYATSNLQSGVPSKFSGSGSGTDYTLTISSLQPEDFSTYYCQQYHSYPLTFGGGTKVEIK
B2: H1M724N (antibody, V domains shown)
VH: QVQLVESGGGVVQPGRSLRLSCAASGFTLSNYGMHWVRQAPGKGLEWVAVIWHDGSNTYYADSVKGRFTISRDNSKNTLYLQMNSLRAEDTAVYYCTREGLDFWSGYYPNWFDPWGQGTLVTVSS
VL: DIQMTQSPSSLSASVGDRVTITCRASQGIRNDLGWYQQKPGKAPKRLIYAASNLQGGVPSRFSGSGSGTEFTLTISSLQPEDFAAYYCLQHNIYPLTFGGGTKVEIK
B3: H1M732N (antibody, V domains shown)
VH: EVQLVESGGGLVRPGGSLRLSCAASGFTFTNAWMSWVRQAPGKGLEWIGQIKSKTDGGTIDYAAPVKGRFTVSRDDSENTLFLQMNSLKTEDTAVYYCAGNWNYVDFDYWGQGTLVTVSS
VL: DIQMTQSPSSLSASVGDRVTITCRASQDIRNDLGWYQQKPGKAPKRLIYAASSLQGGVPSRFSGSGSGTEFTLTISSLQPEDFATYYCLQHNSYPFTFGPGTKVDIK
B4: H1M728N (antibody, V domains shown)
VH: EVQLVESGGDLVQPGGSLRLSCTASGFTFSKYWMTWVRQAPGRGLEWVANIKEDGNEKYFLDSVKGRFTISRDNAKDLLFLQMNSLRGEDTAVYYCVRDRGIEVAGPFDYWGQGTLVTVSS
VL: DIQMTQSPSTLSASVGDRVTVTCRASQTIINWLAWYQQKPGKAPKLLISKASSLESGVPSRFSGSGSGTEFTLTISSLQPDDFATYYCQQYNRYWTFGQGTMVEIK
B5: H2M730N (antibody, V domains shown)
VH: EVQLVESGGGLVQPGGSLRLSCAASGFAFRSYWMTWVRQAPGKGLEWVANIQQDGNDKYYVDSVKGRFTISRDNAKNSLYLQMNSLRAEDTAVYYCARDTGIAEAGPFDYWGQGTLVTVSS
VL: DIQMTQSPSTLSASVGDRVSITCRASQTIISWLAWYQQKPGKAPRLLIYKASSLESGVPSRFSGSGSGTEFTLTINSLQPDDFATYYCQQYNRYWTFGQGTKVEIK
B6: H2M749N (antibody, V domains shown)
VH: QVQLVESGGGVVQPGRSLRLSCAASGFTFSSYGMHWVRQAPGKGLEWVAVIWYDEFNKYYADSVKGRFTISRDNSKNTLYLQMNSLRAEDTAVYYCARERESGYSYGFDYWGQGTLVTVSS
VL: EIVMTQSPATLSVSPGERATLSCRAGQSVSSNLAWYQQKPGQAPRLLIYGASTRATGIPARFSGSGSGTEFTLTISSLQSEDFAVYYCQQYNNWWTFGQGTKVEIK
notes: Hybridoma-derived chimeric antibody, mouse constant domains; also called H1M749N; H1M749
B7: H1H695P (antibody, V domains shown)
VH: QVQLVESGGGVVQPGRSLRLSCAASGFTFSSYGMHWVRQAPGKGLEWVAVMWYDETNKYYADSVKGRFTISRDNSKNTLYLQMNSLRAEDTAVYYCARYSGYEDYYHGMDVWGQGTTVTVS
VL: EIVMTQSPATPSVSPGERATLSCRASQSISSNLAWYQQKPGQAPRLLIYGASTRATGIPARFSGSGSGTEFTLTISSLQSEDFAVYYCQHYNNWITFGQGTRLEIK
notes: Fully human antibody, human IgG1
B8: H1H685P (antibody, V domains shown)
VH: EVQLVESGGGLVQPGGSLRLSCAASGFTFSSYDIHWVRQATGKGLEWVSAIGPAGDTYYPGSVKGRFTISRENAKNSLYLQMNSLRAGDTAVYYCARGLITFGGLIAPFDYWGQGTLVTVSS
VL: EIVLTQSPGTLSLSPGERATLSCRASQSVSSTYLAWYQQKPGQAPRLLIYGASSRATGIPDRFSGSGSGTDFTLTISRLEPEDFAVYYCQHYDNSQTFGQGTKVEIK
notes: Fully human antibody, human IgG1; also called mAb1
B9: H2M744N (antibody, V domains shown)
VH: QVQLVQSGVEVKKPGASVKVSCKTSGYTFSNNGFSWVRQAPGQGLEWLGWISGYNGNTNYAQKFQGRVTMTTDTSTSTAYMELRTLRSDDTAVYYCARDQDYSNFHWLDPWGQGTLVTVAS
VL: DIQMTQSPSSVSASVGDRVIITCRASQGLSSWLAWYQQKPGTAPKLLIHSASSLQTGVPSRFSGSGSGTEFALTINSLQPEDFGTYYCQQANSFPLTFGGGTRVEIK
B10: H2M742N (antibody, V domains shown)
VH: DVQLLESGGDLVQPGGSLRLSCEASGFTFRNYVMIWVRQAPGKGLEWVSGISNSGGTTHYTDSVKGRFTISRDNSKNTLYLQINSLRAEDTAVYYCAKGYLDTSLIEGNWFDPWGQGTLVTVSS
VL: NIVMTQSPLSLPVTPGEPASISCRSSQSLLHSNGFNYLNWFLQKPGQSPQLLIYLGSNRASGVPDKFSGSGSGTDFTLNINRVEAEDVGIYFCMQTLQTPLTFGGGTKVEIK
B11: H2M743N (antibody, V domains shown)
VH: EVQLLESGGGLVQPGGSLRLSCAASGFTFRKYAMSWVRQAPGKGLEWVSVISVSGGNTYYADSVKGRFTISRDNSKNTLYLQLNSLRAEDTAVYYCAKDLTDIVLMVYVDYWGQGTLVTVSS
VL: DIQMTQSPSSVSASVGDRVTITCRASQDIDRWLAWYQQKPGKAPKLLIYAASSLQSGVPSRFSGSGSGTDFTLTISTLQPEDFATYYCQQANSLPFTFGGGTKVEIK
B12: H1H693P (antibody, V domains shown)
VH: EVQLVESGGGLVQPGESLRLSCAASGFTFSSYAMSWVRQGPGKGLEWVSSISGSGGTTYYADSVEGRFTISRDNSKNTLYLHMNSLRAEDTAVYYCAKDFLDYSTYLAFDLWGQGTMVTVSS
VL: DIQMTQSPSSVSASVGDRVTITCRASQGISSWLAWYQQKPGKAPKLLIYAASSLQSGVPSRFSGSGSGTDFTLTISSLQPEDFATYYCQQANSFPRTFGQGTKVEIK
notes: as for B7

Legend:
[1] = molecular target: T1, Dimeric fibrinogen-like domain of human Ang-2 conjugated to human IgG1 (human); assay: SPR, antibody captured, room temp
T1 construct: also called Dimeric Human Ang-2FD; Human Ang-2FD-hFc
Method: (§1) Antibody was captured on a goat anti-mouse IgG polyclonal antibody surface, a goat anti-human κ polyclonal antibody (Southern Biotech, Birmingham, Ala.) surface or a goat anti-human IgG polyclonal antibody (Jackson Immuno Research Lab, West Grove, Pa.) surface created through direct amine coupling to a BIACORE™ CM5 sensor chip to form a captured antibody surface. […] Antigen-antibody binding and dissociation were monitored in real time at room temperature. Kinetic analysis was performed to calculate KD and half-life of antigen/antibody complex dissociation.

[2] = molecular target: T2, Dimeric fibrinogen-like domain of monkey (Macca fascicularis) Ang-2 conjugated to human IgG1 (monkey (Macca fascicularis)); assay: SPR, antibody captured, room temp
T2 construct: also called Dimeric Monkey Ang-2FD; Monkey Ang-2FD-hFc
Method: as §1

[3] = molecular target: T1, Dimeric fibrinogen-like domain of human …; assay: blocking ELISA, 16.67 nM antibody, coated hTie-2-mFc
Method: (§2) Tie-2 is a natural receptor for Ang-2. Anti-Ang-2 antibodies were tested for their ability to block Ang-2 binding to human Tie-2 (hTie-2). hTie-2-mFc (a chimeric construct consisting of human Tie-2 conjugated to mouse IgG; SEQ ID NO:525) was coated onto 96-well plates at a concentration of 2 μg/ml and incubated overnight followed by washing four times in wash buffer (PBS with 0.05% Tween-20). The plate was then blocked with PBS (Irvine Scientific, Santa Ana, Calif.) containing 0.5% BSA (Sigma-Aldrich Corp., St. Louis, Mo.) for one hour at room temperature. In a separate plate, purified anti-Ang-2 antibodies, at a starting concentration of 50 nM, were serially diluted by a factor of three across the plate. […] The antibody/Ang-2FD-Fc mixture was then added to the plate containing hTie-2-mFc and incubated for one hour at room temperature.

[4] = molecular target: T2, Dimeric fibrinogen-like domain of …; assay: as above
Method: as §2

[5] = molecular target: T3, Dimeric fibrinogen-like domain of mouse (Mus musculus) Ang-2 conjugated to human IgG1 (mouse (Mus musculus)); assay: as above
T3 construct: also called Dimeric Mouse Ang-2FD; Mouse Ang-2FD-hFc
Method: as §2

[6] = molecular target: T3, Dimeric fibrinogen-like domain of mouse …; assay: SPR, antibody captured, room temp
Method: as §1

Mouse Ang-2FD-hFc = molecular target: T4, Mouse Ang-2FD-hFc (mouse (Mus musculus)); assay: ELISA, 16.67 nM antibody + 8 nM mouse Ang-2FD-hFc, on coated hTie-2-mFc (competitor)
T4 construct: Order of the pieces follows the name; also called Dimeric Mouse Ang-2FD
Method: as §2

Human Ang-2FD-hFc = molecular target: T5, Human Ang-2FD-hFc (human); assay: ELISA, 16.67 nM antibody + 2 nM human Ang-2FD-hFc, on coated hTie-2-mFc (competitor)
T5 construct: Order of the pieces follows the name (Ang-2FD, then hFc); also called Dimeric Human Ang-2FD; human Ang-2FD protein conjugated to human IgG
Method: as §2

Row | Binder | Kd [1] | T1/2 [1] | Kd [2] | T1/2 [2] | Percent Blocking of Ang-2FD Binding to Tie-2 [3] | Percent Blocking of Ang-2FD Binding to Tie-2 [4] | Percent Blocking of Ang-2FD Binding to Tie-2 [5] | Kd [6] | T1/2 [6] | Percent Blocking of Ang-2FD Binding to Tie-2 (Mouse Ang-2FD-hFc) | Percent Blocking of Ang-2FD Binding to Tie-2 (Human Ang-2FD-hFc)
1 | B1 | 0.362 nM | 32.2 min | 1.47 nM | 23 min | 99.4% | 97.4% | 53.7% | – | – | – | –
2 | B2 | 0.179 nM | 42.7 min | 0.73 nM | 25.7 min | 99.5% | 95.2% | 96.6% | 0.694 nM | 16 min | – | –
3 | B3 | 0.484 nM | 35.5 min | 7.33 nM | 24.1 min | 97.7% | 95.8% | 90.9% | 1.7 nM | 21.4 min | – | –
4 | B4 | 0.137 nM | 58.4 min | 1.58 nM | 69.5 min | 98.5% | 97.1% | 83.9% | 5.65 nM | 9.9 min | – | –
5 | B5 | 0.21 nM | 47 min | 0.842 nM | 36.6 min | 98.9% | 97.3% | 55% | – | – | – | –
6 | B6 | 0.165 nM | 42.9 min | 1.5 nM | 40.9 min | 99.5% | 97.4% | 97.3% | 0.529 nM | 25.5 min | – | –
7 | B7 | – | – | – | – | – | – | – | – | – | 97.6% | 98.4%
8 | B8 | – | – | – | – | – | – | – | – | – | 97.1% | –
9 | B9 | 0.0989 nM | 109 min | 0.5 nM | 282 min | 99.5% | 95.5% | 98.4% | 0.143 nM | 223 min | – | –
10 | B10 | 0.295 nM | 38 min | 6.17 nM | 28.5 min | 99.6% | 94.1% | 98.6% | 0.61 nM | 30.8 min | – | –
11 | B11 | 0.154 nM | 167 min | 0.234 nM | 169 min | 99.6% | 95.1% | 98.4% | 0.882 nM | 195 min | – | –
12 | B12 | – | – | – | – | – | – | – | – | – | 63.6% | 73.9%
